Measured values reported in patent US20260242478A1 (published 2026).
Where no end group is shown, it is not given here.

What was measured:
PSMA Fab [1] = target: T1, PSMA Fab; test: phage ELISA; biotinylated PSMA Fab on neutravidin plate, pre-incubated with PSMA antigen as competitor, anti-M13 HRP detection
T1 construct: also called Anti-PSMA Fab; 006 PSMA Fab
Description: (§1) Clonal phage were harvested as crude supernatants and screened via standard ELISAs. […] Prior to the addition of clonal phage. wells were incubated with blocking buffer and PSMA antigen or blocking buffer alone. Without washing or aspirating, clonal phage supernatants were then added to the wells and incubated for a short time. Wells were then washed followed by detection of bound phage using a horse radish conjugated anti-M13 antibody.

PSMA Fab [2] = target: T1, PSMA Fab; test: phage ELISA; biotinylated PSMA Fab on neutravidin plate, blocking buffer alone, anti-M13 HRP detection
Description: as §1

006 PSMA Fab [3] = target: T2, 006 PSMA Fab; test: clonal phage ELISA on biotinylated anti-PSMA Fab captured on neutravidin, anti-M13 HRP detection
T2 construct: also called Anti-PSMA Fab
Description: as §1

006 PSMA Fab [4] = target: T2, 006 PSMA Fab; test: clonal phage ELISA on captured anti-PSMA Fab; competitor PSMA antigen
Description: as §1

PSMA Fab [5] = target: T3, PSMA Fab; test: phage ELISA; biotinylated PSMA Fab on neutravidin plate, pre-incubated with PSMA antigen as competitor; anti-M13-HRP
T3 construct: Used biotinylated and captured on neutravidin plates in the phage ELISA; also called Anti-PSMA Fab; 006 PSMA Fab
Description: as §1

PSMA Fab [6] = target: T3, PSMA Fab; test: phage ELISA; biotinylated PSMA Fab on neutravidin plate, blocking buffer alone; bound phage detected with anti-M13-HRP
Description: as §1

006 PSMA Fab [7] = target: T4, 006 PSMA Fab; test: clonal phage ELISA; biotinylated PSMA Fab on neutravidin plate, PSMA antigen as competitor, anti-M13-HRP
T4 construct: also called Anti-PSMA Fab
Description: as §1

006 PSMA Fab [8] = target: T4, 006 PSMA Fab; test: clonal phage ELISA; biotinylated PSMA Fab on neutravidin plate, bound phage detected with anti-M13-HRP
Description: as §1

| Binder | phage binding ELISA signal (006 PSMA Fab [3]) | phage binding ELISA signal with PSMA antigen present (006 PSMA Fab [4]) | Phage binding ELISA signal, Anti-PSMA Fab in presence of PSMA antigen (PSMA Fab [5]) | Phage binding ELISA signal, Anti-PSMA Fab (PSMA Fab [6]) | further results |
| --- | --- | --- | --- | --- | --- |
| SPIMCTPDWMCLGF [Phage-3439] | – | – | – | – | Phage binding ELISA signal, Anti-PSMA Fab in presence of PSMA (PSMA Fab [1]): 0.0708; Phage binding ELISA signal, Anti-PSMA Fab (PSMA Fab [2]): 1.75 |
| PVRVCIPQWMCIGF [Phage-3440] | – | – | – | – | Phage binding ELISA signal, Anti-PSMA Fab in presence of PSMA (PSMA Fab [1]): 0.13; Phage binding ELISA signal, Anti-PSMA Fab (PSMA Fab [2]): 1.75 |
| ETMICKPEWMCTGF [Phage-3441] | – | – | – | – | Phage binding ELISA signal, Anti-PSMA Fab in presence of PSMA (PSMA Fab [1]): 0.0818; Phage binding ELISA signal, Anti-PSMA Fab (PSMA Fab [2]): 1.75 |
| VTPRCIPEWMCAGF (cysteine pairing not given here; also: fused to pIII of bacteriophage) [Phage-3442] | – | – | – | – | Phage binding ELISA signal, Anti-PSMA Fab in presence of PSMA (PSMA Fab [1]): 0.106; Phage binding ELISA signal, Anti-PSMA Fab (PSMA Fab [2]): 1.75 |
| YGLRCEPAWMCQGF [Phage-3443] | – | – | – | – | Phage binding ELISA signal, Anti-PSMA Fab in presence of PSMA (PSMA Fab [1]): 0.0879; Phage binding ELISA signal, Anti-PSMA Fab (PSMA Fab [2]): 1.75 |
| TPHACVPDWMCYGF [Phage-3444] | – | – | – | – | Phage binding ELISA signal, Anti-PSMA Fab in presence of PSMA (PSMA Fab [1]): 0.0843; Phage binding ELISA signal, Anti-PSMA Fab (PSMA Fab [2]): 1.75 |
| ITPMCIPAWMCEGV [Phage-3445] | – | – | – | – | Phage binding ELISA signal, Anti-PSMA Fab in presence of PSMA (PSMA Fab [1]): 0.0611; Phage binding ELISA signal, Anti-PSMA Fab (PSMA Fab [2]): 1.75 |
| MPIYCVPEWMCQGL [Phage-3446] | – | – | – | – | Phage binding ELISA signal, Anti-PSMA Fab in presence of PSMA (PSMA Fab [1]): 0.0867; Phage binding ELISA signal, Anti-PSMA Fab (PSMA Fab [2]): 1.75 |
| YNMICQPQWMCSGF [Phage-3447] | – | – | – | – | Phage binding ELISA signal, Anti-PSMA Fab in presence of PSMA (PSMA Fab [1]): 0.0661; Phage binding ELISA signal, Anti-PSMA Fab (PSMA Fab [2]): 1.75 |
| LEKVCKPMWMCTGF [Phage-3448] | – | – | – | – | Phage binding ELISA signal, Anti-PSMA Fab in presence of PSMA (PSMA Fab [1]): 0.0949; Phage binding ELISA signal, Anti-PSMA Fab (PSMA Fab [2]): 1.75 |
| GPKICVPMWMCDGF [Phage-3518] | 1.68 | 0.116 | – | – | – |
| SAIRCEPLWMCSGL [Phage-3519] | 1.68 | 0.0578 | – | – | – |
| EVQYCVPAWMCEGF [Phage-3520] | 1.68 | 0.117 | – | – | – |
| PSISCTPQWMCFGF [Phage-3521] | 1.68 | 0.0639 | – | – | – |
| ALLSCVPPWMCLGL [Phage-3522] | 1.68 | 0.0728 | – | – | – |
| DMARCIPAWMCTGF [Phage-3523] | 1.68 | 0.106 | – | – | – |
| ELLHCKPMWMCIGL [Phage-3524] | 1.67 | 0.0864 | – | – | – |
| YPPLCKPEWMCVGL [Phage-3525] | 1.67 | 0.0714 | – | – | – |
| LIALCKPPWMCEWF [Phage-3526] | 1.67 | 0.213 | – | – | – |
| WFRMCEPSWMCEGF [Phage-3527] | 1.67 | 0.11 | – | – | – |
| GYVMCEPRWMCEGL [Phage-3528] | 1.67 | 0.0803 | – | – | – |
| VVPWCSPAWMCSGF [Phage-3529] | 1.67 | 0.0752 | – | – | – |
| EERICKPQWMCSAF [Phage-3530] | 1.66 | 0.0804 | – | – | – |

| Binder | phage binding ELISA signal (006 PSMA Fab [3]) | phage binding ELISA signal with PSMA antigen present (006 PSMA Fab [4]) | Phage binding ELISA signal, Anti-PSMA Fab in presence of PSMA antigen (PSMA Fab [5]) | Phage binding ELISA signal, Anti-PSMA Fab (PSMA Fab [6]) | further results |
| --- | --- | --- | --- | --- | --- |
| VSPSCVPPWMCVGF [Phage-3531] | 1.66 | 0.0791 | – | – | – |
| VVRHCVPTWMCTGF [Phage-3532] | 1.66 | 0.102 | – | – | – |
| DYSVCRPAWMCQGF (cysteine pairing not given here; also: fused to phage pIII, also called Peptide-180 library clone) [Phage-3729] | – | – | 0.0699 | 1.41 | – |
| FTARCEPSWMCVGF (also called Peptide-180 library clone) [Phage-3730] | – | – | 0.0626 | 1.41 | – |
| LYKECVPQWMCSGF (also called Peptide-180 library clone) [Phage-3731] | – | – | 0.0798 | 1.4 | – |
| TGMACVPWWMCEGF (also called Peptide-180 library clone) [Phage-3732] | – | – | 0.0812 | 1.4 | – |
| ADVRCVPDWMCWGM (also called Peptide-180 library clone) [Phage-3733] | – | – | 0.0602 | 1.4 | – |
| ELPVCRPSWMCGGL (also called Peptide-180 library clone) [Phage-3734] | – | – | 0.0603 | 1.4 | – |
| QVKYCIPEWMCSSF (also called Peptide-180 library clone) [Phage-3735] | – | – | 0.0671 | 1.4 | – |
| FTAQCVPLWMCLGF (also called Peptide-180 library clone) [Phage-3736] | – | – | 0.0789 | 1.39 | – |
| VSHHCVPAWMCFGL (also called Peptide-180 library clone) [Phage-3737] | – | – | 0.0946 | 1.39 | – |
| HSVHCVPMWMCTGF (also called Peptide-180 library clone) [Phage-3738] | – | – | 0.0781 | 1.39 | – |
| VNRMCVPVWMCQGF (also called Peptide-180 library clone) [Phage-3739] | – | – | 0.0729 | 1.39 | – |
| LLLRCEPTWMCTGF (also called Peptide-180 library clone) [Phage-3740] | – | – | 0.0711 | 1.39 | – |
| WTPLCKPLWMCQGL (also called Peptide-180 library clone) [Phage-3741] | – | – | 0.16 | 1.39 | – |
| YSISCVPQWMCEGF (also called Peptide-180 library clone) [Phage-3742] | – | – | 0.0591 | 1.39 | – |
| VQPWCVPSWMCERF (also called Peptide-180 library clone) [Phage-3743] | – | – | 0.312 | 1.39 | – |
| MDVWCVPTWMCQHL [Phage-3995] | – | – | – | – | phage binding ELISA signal (Anti-PSMA Fab, wells pre-incubated with PSMA antigen) (006 PSMA Fab [7]): 0.119; Phage binding ELISA signal, Anti-PSMA Fab (006 PSMA Fab [8]): 0.627 |
| GTQACVPLWMCEGI [Phage-3996] | – | – | – | – | phage binding ELISA signal (Anti-PSMA Fab, wells pre-incubated with PSMA antigen) (006 PSMA Fab [7]): 0.0787; Phage binding ELISA signal, Anti-PSMA Fab (006 PSMA Fab [8]): 0.62 |
| VQPWCVPAWMCDGL [Phage-3997] | – | – | – | – | phage binding ELISA signal (Anti-PSMA Fab, wells pre-incubated with PSMA antigen) (006 PSMA Fab [7]): 0.0983; Phage binding ELISA signal, Anti-PSMA Fab (006 PSMA Fab [8]): 0.607 |
| QMITCQPKWMCEGF [Phage-3998] | – | – | – | – | phage binding ELISA signal (Anti-PSMA Fab, wells pre-incubated with PSMA antigen) (006 PSMA Fab [7]): 0.0852; Phage binding ELISA signal, Anti-PSMA Fab (006 PSMA Fab [8]): 0.589 |
| VQRVCVPTWMCDVF [Phage-3999] | – | – | – | – | phage binding ELISA signal (Anti-PSMA Fab, wells pre-incubated with PSMA antigen) (006 PSMA Fab [7]): 0.07; Phage binding ELISA signal, Anti-PSMA Fab (006 PSMA Fab [8]): 0.584 |
